Assay results from patent publication US11834472B2, “Anti-IL-22 antibodies, antibody fragments, their immunoconjugates and uses thereof” (BioAtla, Inc., priority 2018, dated 2023).

Assay: Aggregate formation at 10 mg/mL in PBS
Format: physicochemical

B1: CPS02: mutant anti-IL-22 antibody binding human and mouse IL-22; light chain LC-06, heavy chain HC-08 (antibody, V domains shown)
VH: QVQLVQSGAEVKKPGASVKVSCKASGYIFRSYWIHWIRQPPGKGLEWIGRIYPGTGRTYYNEKFKGRVTISADKSISTAYLQWSSLKASDTAMYYCARSYDSSVAYWGQGTLVTVSS
VL: AIQLTQSPSSLSASVGDRVTITCSASSSVSYMHWYLQKPGQSPQLLIYKTRKLASGVPSRFSGSGSGTDFTFTISSLEAEDAATYYCQQWSSNPYITFGQGTKVEIKR
Aggregate formation at 10 mg/mL in PBS: no
